From PMC4070910, “Cathepsin S Signals via PAR2 and Generates a Novel Tethered Ligand Receptor Agonist” (PLoS ONE, 2014)
“Also recorded” adds a separate entry of the source.

Legend:
[1] = tested on: luciferase-PAR2M3 (leucine38 and glycine40 to alanines); test: Gaussia luciferase release, luciferase-PAR2M3; assay type: cell-based, human; settings: cathepsin S 2 µM, 10 minutes, room temperature, triplicate
Source text: Gaussia luciferase cDNA was cloned, without its termination codon, into pcDNA3.1(−) as an Xho I-EcoR I fragment. Human PAR2 cDNA and its mutants, M1, M2 and M3, were generated using PCR primers designed to start after the signal sequence and end with a termination codon: […] and […] . The PCR amplified cDNAs were cloned into EcoR I and Hind III sites C-terminal to Gaussia luciferase cDNA. The resulting plasmids were called pGLPAR2, pGLPAR2M1, pGLPAR2M2 and pGLPAR2M3.
The QuickChange site-directed mutagenesis procedure (Agilent Technologies, Santa Clara, CA) was used to generate PAR2 N-terminal mutants. PAR2M1, with a single amino acid change, was created by substituting the leucine^38 codon, CTT, with alanine, GCT, using the primers: PAR2M1F, […], and PAR2M1R, […]. […]
The plasmid DNAs pGLPAR2, pGLPAR2M1, pGLPAR2M2 and pGLPAR2M3 (10 µg of each) were transfected into 2×10^6 HeLa cells as described above and plated into 10 cm dishes. […] Cells were scraped in order to eliminate the use of trypsin, which could activate PARs, and allowed for the luminescence assay to be performed in a small volume. […] Luminescence assays were performed in triplicate on 50 µl of the supernatants according to the instructions of the manufacturer (New England Biolabs, Ipswich, MA).

[2] = cited from earlier work
Source text: To better understand the mechanisms of PAR2 activation and regulation, we sought to identify cleavage sites and downstream signaling events induced by an endogenous cysteine protease, cathepsin S. Cysteine cathepsins, including cathepsin S, have been broadly implicated in health and disease including inflammation, cardiovascular and pulmonary disease, obsesity, itch and pain[15]. […] Cathepsin S is expressed in many types of cells. […] The KVDGTS sequence is preceded by LIG, placing G^40 in the P1 postion and L^38 in the P3 postion. The finding of cleavage after glycine is consistent with what is reported in the MEROPS database and a recent report on proteomic identification of protease cleavage sites (PICS)[25]. These reports reveal that cleavage after leucine at P3 is associated with cathepsin S, but less so than with glycine at P1. Correlations were otherwise weak between these reports and the cleavage sites identified here. Cathep ...

B1: cathepsin S: Recombinant human cathepsin S, cysteine protease, expressed in E.coli, refolded and activated (protein, UniProt P25774 115-331, looked up)
Cathepsin S: LPDSVDWREKGCVTEVKYQGSCGACWAFSAVGALEAQLKLKTGKLVSLSAQNLVDCSTEKYGNKGCNGGFMTTAFQYIIDNKGIDSDASYPYKAMDQKCQYDSKYRAATCSKYTELPYGREDVLKEAVANKGPVSVGVDARHPSFFLYRSGVYYEPSCTQNVNHGVLVVGYGDLNGKEYWLVKNSWGHNFGEEGYIRMARNKGNHCGIASFPSYPEI
receptor cleavage, luciferase luminescence (in words) [1]: did not cleave PAR2M2 or PAR2M3
cleavage after alanine (in words) ([2]; PICS report): rarely cleaves after alanine
elastase activity and Ii chain cleavage (in words) [2]: potent elastase; also recorded: cleaves the Ii chain
pH dependence of activity (in words) [2]: active at neutral pH
